Experimental findings from patent publication US20250289871A1 are described below.

For the test, the target named is SARS-CoV-2 Delta + T51I + T95I spike protein (authentic virus) (SARS-CoV-2), P0DTC2. Description: cell-based or functional assay.

B1: RQ43-GL-H-LO1 (TM-YTE) (antibody, V domains shown)
VH: EVQLVESGGGLVQPGRSLRLSCAASGFPFDDYAIHWVRLAPGKGLEWVSSISWDSGSIGYADSVKGRFTISRDNAKNSLYLQMNSLRAEDTALYYCAKGAFPGYSSGWYYGLEVWGQGTTVTVSS
VL: QSVVTQPPSASGSLGQSVTISCTGTSSDVGGYNYVSWYQQHPGKAPKLMIFEVSKRPSGVPDRFSGSKSGNTASLTVSGLQAEDEADYYCSSYAGNKGVFGGGTKLTVL
Consider B1, for which the Authentic Virus Neutralization IC50 was found to be 0.021 µg/mL.
